Test results as given in patent US20120045438A1 (Janssen / Centocor, published 2012).
Residue numbers refer to the chain shown, from its start.

B1: Phage # 54 Fab (IL-13-142 library) (Fab, V domains shown)
VH: QVTLKESGPVLVKPTETLTLTCTVSGFSLSTYGMGVGWIRQPPGKALEWLAHIWWDDVKRYNPALKSRLTISKDTSKSQVVLTMTNMDPVDTATYYCARMGSDYDVWFDYWGQGTLVTVSS
VL: DIQMTQSPSTLSASVGDRVTITCRASKSISKYLAWYQQKPGKAPKLLIYSGSTLQSGVPSRFSGSGSGTEFTLTISSLQPDDFATYYCQQHDWGPYTFGGGTKVEIK
notes: Fab on phage pIX
B2: Phage # 39 Fab (IL-13-142 library) (Fab, V domains shown)
VH: B1 VH
VL: B1 VL with D92L, W93G, G94V
notes: Fab on phage pIX
B3: Phage # 36 Fab (IL-13-142 library) (Fab, V domains shown)
VH: B1 VH
VL: B1 VL with D92E, W93L
notes: Fab on phage pIX
B4: Phage # 47 Fab (IL-13-142 library) (Fab, V domains shown)
VH: B1 VH
VL: B1 VL with H91L, D92T, W93Y, G94E
notes: Fab on phage pIX
B5: Phage # 40 Fab (IL-13-142 library) (Fab, V domains shown)
VH: B1 VH
VL: B1 VL with D92S, W93R
notes: Fab on phage pIX
B6: Phage # 09 Fab (IL-13-142 library) (Fab, V domains shown)
VH: B1 VH
VL: B1 VL with D92L, W93D, G94V
notes: Fab on phage pIX
B7: Phage # 10 Fab (IL-13-142 library) (Fab, V domains shown)
VH: B1 VH
VL: B1 VL with D92L
notes: Fab on phage pIX
B8: Phage # 44 Fab (IL-13-142 library) (Fab, V domains shown)
VH: B1 VH
VL: B1 VL with W93I
notes: Fab on phage pIX
B9: Phage # 65 Fab (IL-13-142 library) (Fab, V domains shown)
VH: B1 VH
VL: B1 VL with W93F, G94V
notes: Fab on phage pIX
B10: Phage # 55 Fab (IL-13-142 library) (Fab, V domains shown)
VH: B1 VH
VL: B1 VL with D92L, W93T, G94N
notes: Fab on phage pIX
B11: Phage # 11 Fab (IL-13-142 library) (Fab, V domains shown)
VH: B1 VH
VL: B1 VL with H91Q, W93V
notes: Fab on phage pIX
B12: Phage # 82 Fab (IL-13-142 library) (Fab, V domains shown)
VH: B1 VH
VL: B1 VL with W93V, G94S
notes: Fab on phage pIX
B13: Phage # 84 Fab (IL-13-142 library) (Fab, V domains shown)
VH: B1 VH
VL: B1 VL with D92L, W93I, G94E
notes: Fab on phage pIX
B14: Phage # 04 Fab (IL-13-142 library) (Fab, V domains shown)
VH: B1 VH
VL: B1 VL with H91Q, W93L
notes: Fab on phage pIX
B15: Phage # 67 Fab (IL-13-142 library) (Fab, V domains shown)
VH: B1 VH
VL: B1 VL with H91P, D92I, W93D
notes: Fab on phage pIX
B16: Phage # 46 Fab (IL-13-142 library) (Fab, V domains shown)
VH: B1 VH
VL: B1 VL with D92V, W93T, G94L
notes: Fab on phage pIX
B17: Phage # 29 Fab (IL-13-142 library) (Fab, V domains shown)
VH: B1 VH
VL: B1 VL with D92W, W93M, G94A
notes: Fab on phage pIX
B18: Phage # 71 Fab (IL-13-142 library) (Fab, V domains shown)
VH: B1 VH
VL: B1 VL with H91P, D92L, W93D, G94S
notes: Fab on phage pIX
B19: Phage # 56 Fab (IL-13-142 library) (Fab, V domains shown)
VH: B1 VH
VL: B1 VL with D92W, W93D, G94A
notes: Fab on phage pIX
B20: Phage # 61 Fab (IL-13-142 library) (Fab, V domains shown)
VH: B1 VH
VL: B1 VL with D92L, W93F, G94T
notes: Fab on phage pIX
B21: Phage # 74 Fab (IL-13-142 library) (Fab, V domains shown)
VH: B1 VH
VL: B1 VL with H91Q, W93M
notes: Fab on phage pIX
B22: Phage # 76 Fab (IL-13-142 library) (Fab, V domains shown)
VH: B1 VH
VL: B1 VL with D92L, W93D, G94L
notes: Fab on phage pIX
B23: Phage # 43 Fab (IL-13-142 library) (Fab, V domains shown)
VH: B1 VH
VL: B1 VL with D92L, W93G, G94Q
notes: Fab on phage pIX
B24: Phage # 51 Fab (IL-13-142 library) (Fab, V domains shown)
VH: B1 VH
VL: B1 VL with D92S, W93A
notes: Fab on phage pIX
B25: Phage # 85 Fab (IL-13-142 library) (Fab, V domains shown)
VH: B1 VH
VL: B1 VL with D92M
notes: Fab on phage pIX
B26: Phage # 22 Fab (IL-13-142 library) (Fab, V domains shown)
VH: B1 VH
VL: B1 VL with W93P
notes: Fab on phage pIX
B27: Phage # 83 Fab (IL-13-142 library) (Fab, V domains shown)
VH: B1 VH
VL: B1 VL with W93M
notes: Fab on phage pIX
B28: Phage # 06 Fab (IL-13-142 library) (Fab, V domains shown)
VH: B1 VH
VL: B1 VL with H91P, D92L, W93T, G94H
notes: Fab on phage pIX
B29: Phage # 05 Fab (IL-13-142 library) (Fab, V domains shown)
VH: B1 VH
VL: B1 VL with D92V, W93S
notes: Fab on phage pIX
B30: Phage # 31 Fab (IL-13-142 library) (Fab, V domains shown)
VH: B1 VH
VL: B1 VL with D92F, W93R, G94R
notes: Fab on phage pIX
B31: Phage # 78 Fab (IL-13-142 library) (Fab, V domains shown)
VH: B1 VH
VL: B1 VL with D92L, W93M, G94A
notes: Fab on phage pIX
B32: Phage # 70 Fab (IL-13-142 library) (Fab, V domains shown)
VH: B1 VH
VL: B1 VL with D92S
notes: Fab on phage pIX
B33: Phage # 13 Fab (IL-13-142 library) (Fab, V domains shown)
VH: B1 VH
VL: B1 VL with D92E
notes: Fab on phage pIX
B34: Phage # 81 Fab (IL-13-142 library) (Fab, V domains shown)
VH: B1 VH
VL: B1 VL with W93V
notes: Fab on phage pIX
B35: Phage # 16 Fab (IL-13-142 library) (Fab, V domains shown)
VH: B1 VH
VL: B1 VL with D92V, W93G
notes: Fab on phage pIX
B36: Phage # 35 Fab (IL-13-142 library) (Fab, V domains shown)
VH: B1 VH
VL: B1 VL with W93R
notes: Fab on phage pIX
B37: Phage # 21 Fab (IL-13-142 library) (Fab, V domains shown)
VH: B1 VH
VL: B1 VL with H91W, D92S, W93D
notes: Fab on phage pIX
B38: Phage # 57 Fab (IL-13-142 library) (Fab, V domains shown)
VH: B1 VH
VL: B1 VL with G94E
notes: Fab on phage pIX
B39: Phage # 27 Fab (IL-13-142 library) (Fab, V domains shown)
VH: B1 VH
VL: B1 VL with D92N, W93D, G94S
notes: Fab on phage pIX
B40: Phage # 75 Fab (IL-13-142 library) (Fab, V domains shown)
VH: B1 VH
VL: B1 VL with H91L, D92S, W93Y, G94E
notes: Fab on phage pIX
B41: Phage # 32 Fab (IL-13-142 library) (Fab, V domains shown)
VH: B1 VH
VL: B1 VL with D92L, W93G, G94T
notes: Fab on phage pIX
B42: Phage # 01 Fab (IL-13-142 library) (Fab, V domains shown)
VH: B1 VH
VL: B1 VL with D92W
notes: Fab on phage pIX
B43: Phage # 18 Fab (IL-13-142 library) (Fab, V domains shown)
VH: B1 VH
VL: B1 VL with H91W, W93G
notes: Fab on phage pIX
B44: Phage # 77 Fab (IL-13-142 library) (Fab, V domains shown)
VH: B1 VH
VL: B1 VL with W93F, G94A
notes: Fab on phage pIX
B45: Phage # 30 Fab (IL-13-142 library) (Fab, V domains shown)
VH: B1 VH
VL: B1 VL with D92L
notes: Fab on phage pIX
B46: Phage # 72 Fab (IL-13-142 library) (Fab, V domains shown)
VH: B1 VH
VL: B1 VL with D92N, W93E
notes: Fab on phage pIX
B47: Phage # 15 Fab (IL-13-142 library) (Fab, V domains shown)
VH: B1 VH
VL: B1 VL with H91P, D92L, W93D, G94A
notes: Fab on phage pIX

Biological target: T1, human IL-13 R130Q variant (R110Q of the mature chain) (human, UniProt P35225 35-146, Biotinylated on amines (NHS-LC-biotin, 4:1) in ELISA, panning and competition assays. The letters are unchanged.)
T1 construct: R130Q counts from Met 1 of the signal peptide, R110Q on the mature chain; Bought from Peprotech; also called IL-13 R110Q; b-R130Q
Assay: single-point (10 nM) phage Fab ELISA on biotinylated IL-13 R130Q

Binder	% of Lc16Hc7 [%]
B1	361
B2	178
B3	196
B4	233
B5	179
B6	171
B7	318
B8	240
B9	147
B10	355
B11	229
B12	342
B13	186
B14	127
B15	127
B16	281
B17	182
B18	208
B19	234
B20	245
B21	301
B22	256
B23	205
B24	192

Binder	% of Lc16Hc7 [%]
B25	259
B26	313
B27	145
B28	232
B29	320
B30	288
B31	154
B32	308
B33	196
B34	231
B35	206
B36	296
B37	276
B38	245
B39	238
B40	355
B41	228
B42	222
B43	231
B44	195
B45	140
B46	114
B47	154
